Source: US20160200814A1, “IMMUNORECEPTOR MODULATION FOR TREATING CANCER AND VIRAL INFECTIONS” (THE COUNCIL OF THE QUEENSLAND INSTITUTE OF MEDICAL RESEARCH, priority 2013, published 2016)

Target: T1, CD155 at the cell surface of B16F10 (Mus musculus, UniProt F6V4I7)
T1 construct: at the cell surface of B16F10 cells; endogenous in cells; host or cells: B16F10 melanoma cells
T1 sequence (F6V4I7 29-408): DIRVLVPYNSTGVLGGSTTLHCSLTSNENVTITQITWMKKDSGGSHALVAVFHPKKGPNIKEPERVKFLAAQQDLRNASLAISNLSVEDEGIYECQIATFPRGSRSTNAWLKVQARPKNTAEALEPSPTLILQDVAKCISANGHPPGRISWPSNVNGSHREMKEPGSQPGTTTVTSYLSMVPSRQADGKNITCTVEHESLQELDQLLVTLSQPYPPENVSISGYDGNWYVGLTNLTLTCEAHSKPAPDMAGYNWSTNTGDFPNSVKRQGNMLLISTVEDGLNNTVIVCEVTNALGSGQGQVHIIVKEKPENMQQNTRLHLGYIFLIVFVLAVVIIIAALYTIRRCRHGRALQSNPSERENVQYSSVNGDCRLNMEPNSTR
Experiment: Binding of DNAM-1-Fc (AF-647) at the cell surface of B16F10 cells, flow cytometry
Conditions: FIG. 3c; DNAM-1-Fc AF-647 0.5-20 μg/ml; competitor 50 μg/ml; versus control Ig
Source text: FIG. 3: CD96 limits NK cell-dependent tumor immunosurveillance. a, b. CD96 and DNAM-1 have an opposite role in the control of B16F10 metastasis. a. 2×10^5 B16F10 cells were intravenously injected into WT, CD96^−/−, DNAM-1^−/− and DNAM-1^−/− CD96^−/− mice and metastatic burden was quantified in the lungs after 14 days. Representative experiment out of 3. b. Pictures showing the lung of WT and CD96^−/− mice two weeks after the injection of 2×10^5 and 5×10^5 B16F10 cells. Representative experiment out of two. c. […] The binding of DNAM-1-Fc labeled with AF-647 (0.5-20 μg/ml) at the cell surface of B16F10 cells was analyzed in the presence of 50 μg/ml of control Ig, recombinant CD96 or TIGIT-Fc. The FACS histograms and the mean±SD of triplicate wells from one representative experiment out of 3 are shown. d. A 4 hr^51 Cr release assay was performed between B16F10 cells and IL-2-activated NK cells from WT, DNAM-1^−/− and CD96^−/− mice at the indicated effector target ratios. Solid circles represent WT NK cells, open circles represent CD96^−/− NK cells and solid squares represents DNAM-1^−/− NK cells. e-h. CD96 and DNAM-1 have an opposite role in the immunosurveillance of MCA induced fibrosarcoma mediated by NK cells. e-h Groups of 15-30 male, WT, DNAM-1^−/− and CD96^−/− and DNAM-1^−/− CD96^−/− mice were injected with MCA (100 μg/mouse). […]

B1: recombinant CD96: recombinant CD96 protein used at 50 μg/ml as competitor of DNAM-1-Fc binding (protein, UniProt P40200 22-585, looked up)
T-cell surface protein tactile: VWEKTVNTEENVYATLGSDVNLTCQTQTVGFFVQMQWSKVTNKIDLIAVYHPQYGFYCAYGRPCESLVTFTETPENGSKWTLHLRNMSCSVSGRYECMLVLYPEGIQTKIYNLLIQTHVTADEWNSNHTIEIEINQTLEIPCFQNSSSKISSEFTYAWSVENSSTDSWVLLSKGIKEDNGTQETLISQNHLISNSTLLKDRVKLGTDYRLHLSPVQIFDDGRKFSCHIRVGPNKILRSSTTVKVFAKPEIPVIVENNSTDVLVERRFTCLLKNVFPKANITWFIDGSFLHDEKEGIYITNEERKGKDGFLELKSVLTRVHSNKPAQSDNLTIWCMALSPVPGNKVWNISSEKITFLLGSEISSTDPPLSVTESTLDTQPSPASSVSPARYPATSSVTLVDVSALRPNTTPQPSNSSMTTRGFNYPWTSSGTDTKKSVSRIPSETYSSSPSGAGSTLHDNVFTSTARAFSEVPTTANGSTKTNHVHITGIVVNKPKDGMSWPVIVAALLFCCMILFGLGVRKWCQYQKEIMERPPPFKPPPPPIKYTCIQEPNESDLPYHEMETL
With B1 the “competition with DNAM-1-Fc binding to CD155” value was “compete with DNAM-1 for the binding of CD155 at the cell surface of B16F10”.
